Target: T1, Nuclear receptor-related factor 1 (Nurr1) (mouse, UniProt Q06219 1-598)
T1 construct: Endogenous transcription factor in mouse ventral midbrain lysates (IP) or frozen tissue sections (PLA); not a recombinant construct; also called NR4A2
Experiment: reciprocal co-immunoprecipitation and Western blot, midbrain lysates of 10-week-old mice
Experimental: Interaction between Nurr1 and Foxa2 (in mouse VM tissues at 10 weeks of age) was assessed by an IP. Tissues were lysed in IP lysis buffer (Thermo Scientific, Waltham, Mass.) supplemented with protease inhibitors. Lysates were incubated with an anti-Nurr1 antibody (1:1,000, mouse, R&D Systems) or an anti-Foxa2 antibody (1:1,000, goat, Santa Cruz Biotechnology) at 4° C. for 18-24 hours. The mixtures were shaken with magnetic beads (Life Technologies) at room temperature for 1-2 hours. After washing, immunoprecipitated proteins were eluted in a sample buffer and subjected to a Western blot analysis using an anti-Foxa2 antibody (1:1,000, goat, Cell Signaling Technology) or an anti-Nurr1 antibody (1:500, mouse, R&D Systems).
Close physical interaction of these two proteins was confirmed by an in situ proximity ligation assay (PLA), which allows visualization of protein-protein binding by red fluorescence (554 nm) emanating from two proteins in close proximity (FIG. 2E).

T1 sequence (Q06219 whole entry): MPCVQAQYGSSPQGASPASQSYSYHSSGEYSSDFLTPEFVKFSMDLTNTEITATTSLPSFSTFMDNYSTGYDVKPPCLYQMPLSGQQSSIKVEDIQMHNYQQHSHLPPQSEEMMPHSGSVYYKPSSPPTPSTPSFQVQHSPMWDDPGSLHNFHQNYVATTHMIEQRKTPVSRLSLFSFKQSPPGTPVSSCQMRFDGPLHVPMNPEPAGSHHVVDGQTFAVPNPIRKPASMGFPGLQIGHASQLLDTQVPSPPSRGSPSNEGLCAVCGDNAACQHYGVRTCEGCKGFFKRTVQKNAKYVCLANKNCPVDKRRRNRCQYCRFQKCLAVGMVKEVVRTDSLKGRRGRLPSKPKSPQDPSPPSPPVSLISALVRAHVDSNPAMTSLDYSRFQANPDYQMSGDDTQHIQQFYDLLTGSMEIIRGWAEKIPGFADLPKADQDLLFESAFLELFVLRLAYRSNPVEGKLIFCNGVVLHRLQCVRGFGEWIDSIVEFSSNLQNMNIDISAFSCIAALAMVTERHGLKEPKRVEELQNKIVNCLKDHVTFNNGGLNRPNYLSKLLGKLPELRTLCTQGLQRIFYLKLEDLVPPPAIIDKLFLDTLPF

- binding result: binds
B1: forkhead box protein A2 (Foxa2) (other, mouse, UniProt P35583 1-459, looked up)
chain: MLGAVKMEGHEPSDWSSYYAEPEGYSSVSNMNAGLGMNGMNTYMSMSAAAMGGGSGNMSAGSMNMSSYVGAGMSPSLAGMSPGAGAMAGMSGSAGAAGVAGMGPHLSPSLSPLGGQAAGAMGGLAPYANMNSMSPMYGQAGLSRARDPKTYRRSYTHAKPPYSYISLITMAIQQSPNKMLTLSEIYQWIMDLFPFYRQNQQRWQNSIRHSLSFNDCFLKVPRSPDKPGKGSFWTLHPDSGNMFENGCYLRRQKRFKCEKQLALKEAAGAASSGGKKTAPGSQASQAQLGEAAGSASETPAGTESPHSSASPCQEHKRGGLSELKGAPASALSPPEPAPSPGQQQQAAAHLLGPPHHPGLPPEAHLKPEHHYAFNHPFSINNLMSSEQQHHHSHHHHQPHKMDLKAYEQVMHYPGGYGSPMPGSLAMGPVTNKAGLDASPLAADTSYYQGVYSRPIMNSS
notes: Endogenous transcription factor in mouse ventral midbrain lysates (IP) or frozen tissue sections (PLA); not a recombinant construct

— patent US10555972 (INNOPEUTICS, dated 2020)
